How the values were obtained:
[1] = target: integrin αvβ3 on breast cancer cells (MCF7, 4T1, MDA-MB-231); test: cell-based or functional assay
[2] = target: integrin αvβ5 on breast cancer cells (MCF7, 4T1, MDA-MB-231); test: cell-based or functional assay

cell adhesion to periostin-coated wells after treatment with anti-αvβ3 antibody [1]: 50 % of control
cell adhesion to periostin-coated wells after treatment with anti-αvβ5 antibody [2]: 50 % of control
Substance: periostin (recombinant protein purchased from R&D system, as coated on wells or added to cells) (ligand)

From patent publication US20150337309A1
